{"source": "patent US20240117334", "proteins": {"B1": {"name": "MTSP-1 F97E/K224N/F99L/D217I/C122S/C[17]S/C[19]S (protein)", "chain": "VVGGTDADEGEWPWQVSLHALGQGHICGASLISPNWLVSAAHCYIDDRGFRYSDPTQWTAFLGLHDQSQRSAPGVQERRLKRIISHPFFNDETLDYDIALLELEKPAEYSSMVRPISLPDASHVFPAGKAIWVTGWGHTQYGGTGALILQKGEIRVINQTTCENLLPQQITPRMMCVGFLSGGVDSCQGDSGGPLSSVEADGRIFQAGVVSWGIGCAQRNNPGVYTRLPLFRDWIKENTGV"}, "B2": {"name": "chymase C22S/K40L/F41K/L99N/F173Y/D175N/S218L/A226R (protein)", "chain": "IIGGTESKPHSRPYMAYLEIVTSNGPSLKCGGFLIRRNFVLTAAHCAGRSITVTLGAHNITEEEDTWQKLEVIKQFRHPKYNTSTNHHDIMLLKLKEKASLTLAVGTLPFPSQFNFVPPGRMCRVAGWGRTGVLKPGSDTLQEVKLRLMDPQACSHYRNFDHNLQLCVGNPRKTKSAFKGDSGGPLLCAGVAQGIVSYGRLDAKPPRVFTRISHYRPWINQILQAN"}, "B3": {"name": "chymase C22S/P38Q/K40L/F41R/L99H/V138I/F173Y/D175S/A190S/V213A/S218I/A226R (protein)", "chain": "B2 chain with P26Q, K29R, N86H, V125I, N159S, A177S, V196A, L201I"}, "B4": {"name": "chymase C22S/P38Q/K40M/F41R/L99M/F173Y/D175N/V213Q/S218V/A226R/F228A (protein)", "chain": "B2 chain with P26Q, L28M, K29R, N86M, V196Q, L201V, F209A"}, "B5": {"name": "chymase C22S/P38Q/K40L/F41R/V138I/F173Y/D175N/A190S/V213A/S218V/A226R (protein)", "chain": "B2 chain with P26Q, K29R, N86L, V125I, A177S, V196A, L201V"}, "B6": {"name": "chymase C22S/P38Q/K40M/F41R/V138I/F173Y/D175R/A190S/V213A/S218V/A226R (protein)", "chain": "B2 chain with P26Q, L28M, K29R, N86L, V125I, N159R, A177S, V196A, L201V"}, "B7": {"name": "chymase C22S/P38Q/K40M/F41R/D175N/V213Q/S218V/A226R/F228A (protein)", "chain": "B2 chain with P26Q, L28M, K29R, N86L, Y157F, V196Q, L201V, F209A"}}, "molecular_target": "Human Factor B", "sequence (chain, as listed by the source)": "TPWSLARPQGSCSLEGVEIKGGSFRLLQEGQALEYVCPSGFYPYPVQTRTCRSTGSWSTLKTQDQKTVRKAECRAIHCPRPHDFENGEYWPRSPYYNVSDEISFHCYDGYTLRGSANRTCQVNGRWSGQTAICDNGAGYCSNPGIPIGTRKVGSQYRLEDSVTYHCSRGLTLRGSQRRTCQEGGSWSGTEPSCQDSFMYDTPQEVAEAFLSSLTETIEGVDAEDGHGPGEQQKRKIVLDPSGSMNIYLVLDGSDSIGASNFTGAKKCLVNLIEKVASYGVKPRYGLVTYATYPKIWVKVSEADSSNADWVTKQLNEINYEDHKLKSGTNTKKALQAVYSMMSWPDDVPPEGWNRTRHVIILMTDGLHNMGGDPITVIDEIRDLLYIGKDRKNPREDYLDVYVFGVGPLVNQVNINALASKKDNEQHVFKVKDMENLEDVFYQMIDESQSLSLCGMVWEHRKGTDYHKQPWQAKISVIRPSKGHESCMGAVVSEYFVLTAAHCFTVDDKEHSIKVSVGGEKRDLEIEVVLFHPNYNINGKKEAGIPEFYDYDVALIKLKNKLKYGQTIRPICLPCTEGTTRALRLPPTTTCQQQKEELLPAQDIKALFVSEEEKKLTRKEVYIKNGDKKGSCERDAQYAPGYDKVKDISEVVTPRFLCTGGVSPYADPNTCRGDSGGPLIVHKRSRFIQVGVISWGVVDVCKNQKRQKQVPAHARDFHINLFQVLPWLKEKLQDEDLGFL", "note": "Residue numbers refer to the chain shown, from its start. In names and notes the source's numbering stands.", "data": [{"protein": "B1", "values": [{"measurement": "Factor B add-back hemolysis", "value": "is able to inhibit hemolysis"}]}, {"protein": "B2", "values": [{"measurement": "Factor B cleavage, Coomassie gel", "value": "each lot showed the ability of the engineered proteases to cleave Factor B"}]}, {"protein": "B3", "values": [{"measurement": "Factor B cleavage, Coomassie gel", "value": "each lot showed the ability of the engineered proteases to cleave Factor B"}]}, {"protein": "B4", "values": [{"measurement": "Factor B cleavage, Coomassie gel", "value": "each lot showed the ability of the engineered proteases to cleave Factor B"}]}, {"protein": "B5", "values": [{"measurement": "Factor B cleavage", "value": "show high Factor B cleavage activity"}]}, {"protein": "B6", "values": [{"measurement": "Factor B cleavage", "value": "show high Factor B cleavage activity"}]}, {"protein": "B7", "values": [{"measurement": "Factor B cleavage, Coomassie gel", "value": "each lot showed the ability of the engineered proteases to cleave Factor B"}]}]}
